Paper PMC7765500, “Siderophore Scaffold as Carrier for Antifungal Peptides in Therapy of Aspergillus fumigatus Infections” (Journal of Fungi, 2020)
Values after ≈ are worked out from the molar mass of the structure shown. Read-outs that look alike come from different tables or passages of the source. Square brackets hold non-standard residues; d marks the D form. Peptide text beside a SMILES is read from it. Orn(N5-OH,N5-Ac) = CC(=O)N(O)CCC[C@H](N)C(=O)O

Assays:
[1] = test system: A. fumigatus; test: Uptake assay of 68Ga-labelled conjugates in A. fumigatus; assay type: cell-based, Aspergillus fumigatus; conditions: iron-depleted AMM, 45 min, 37 °C
Protocol: Assays were performed as previously described. Briefly, uptake and competition assays were performed with A. fumigatus in iron-depleted and iron-replete Aspergillus minimal media (AMM), using a 96-well MultiScreen Filter Plates HTS (1 μm glass fiber filter, Merck Millipore, Darmstadt, Germany). Compounds were incubated for 45 min at 37 °C and filters measured in a gamma counter. Competition assays were performed in the same way except for pre-incubation with the iron-containing antifungal conjugates for 15 min, resulting in a competition at the MirB transporter to show specific binding to MirB.

[2] = assay type: physicochemical; conditions: pH 7.4
Protocol: Aliquots of 50 µL of ^68Ga-labelled conjugate (~5 µM) were added to 450 µL of phosphate-buffered saline pH 7.4 (PBS) and 500 µL of Octanol into a 1.5 mL Eppendorf tube. The mixture was vigorously shaken for 20 min at 1400 rpm in a standard vortex (MS 3, IKA, Staufen, Germany) and hereafter, 200 µL of each phase removed and measured in a gamma counter (2480 automatic gamma counter Wizard2 3’’, Perkin Elmer, Waltham, MA, USA) LogD was calculated as the ratio of octanol/water phase using Excel. (n = 3, six technical replicates)

[3] = in vivo; parameters: species or system BALB/c mice; conditions: mouse, iv; for tissue uptake: female, BALB/c, 0.4 nmol, total radioactivity, Kidney uptake
Protocol: Stability test and biodistribution were conducted in 4–6 weeks-old female BALB/c mice (in-house breed, ZVTA Innsbruck). ^68Ga-labelled conjugates, dissolved in PBS (Ph. Eur. pH 7.4) and pH adjusted to pH 6.5 with sodium acetate, were injected via lateral tail vein using approximately 0.4 nmol of compound and a volume of 150 µL. For biodistribution, the same procedure was applied except for different time points of 45 and 90 min. Hereafter the animals were euthanized by cervical dislocation and the organs (blood, spleen, pancreas, stomach, liver, kidneys, heart, lung, muscle, femur) were removed and weighed. The activity of the samples was measured in a gamma counter and the results were calculated as a percentage of injected dose per gram tissue (%ID/g).

[4] = test system: A. fumigatus (ATCC 46645); assay type: cell-based, Aspergillus fumigatus
Protocol: (§1) Susceptibility tests were performed according to CLSI guidelines with slight modifications. In brief, 96-well plates (Greiner Bio-One GmbH) were prepared with 100 μL of 2 × AMM (Aspergillus minimal medium) or 0.2 × Potato Dextrose Broth (PDB) containing 3 × 10^4 spores of A. fumigatus (ATCC 46645) per well. An amount of 100μL antifungal, dissolved in water, was added to get a final concentration of 1 × AMM/0.1 × PDB medium and antifungal concentration ranging from 0.031–16 μg/mL.

[5] = test system: A. fumigatus; parameters: method as in PMID 26956772; conditions: 24 h, 37 °C, 0.1 × Vogel's medium; cited from earlier work
[6] = test system: A. fumigatus (ATCC 46645); assay type: cell-based, Aspergillus fumigatus; conditions: AMM
Protocol: as §1

[7] = test system: A. fumigatus; parameters: method as in PMID 31405865; conditions: RPMI medium, 48 h; cited from earlier work
[8] = Biodistribution Intestine 45 min
[9] = Biodistribution Intestine 90 min
[10] = Biodistribution Pancreas 45 min
[11] = Biodistribution Pancreas 90 min

| SMILES | Uptake into A. fumigatus hyphae normalized to uptake of [68Ga]Ga-TAFC [1] [%] | logD [2] | tissue uptake at 0.75 h ([3]; Biodistribution Blood 45 min) [%ID/g] | tissue uptake at 1.5 h ([3]; Biodistribution Blood 90 min) [%ID/g] | tissue uptake at 0.75 h ([3]; Biodistribution Femur 45 min) [%ID/g] | tissue uptake at 1.5 h ([3]; Biodistribution Femur 90 min) [%ID/g] | tissue uptake at 0.75 h ([3]; Biodistribution Heart 45 min) [%ID/g] | tissue uptake at 1.5 h ([3]; Biodistribution Heart 90 min) [%ID/g] | tissue uptake at 0.75 h [3, 8] [%ID/g] | tissue uptake at 1.5 h [3, 9] [%ID/g] | tissue uptake at 0.75 h ([3]; Biodistribution Kidneys 45 min) [%ID/g] | tissue uptake at 1.5 h ([3]; Biodistribution Kidneys 90 min) [%ID/g] | tissue uptake at 0.75 h ([3]; Biodistribution Liver 45 min) [%ID/g] | tissue uptake at 1.5 h ([3]; Biodistribution Liver 90 min) [%ID/g] | tissue uptake at 0.75 h ([3]; Biodistribution Lung 45 min) [%ID/g] | tissue uptake at 1.5 h ([3]; Biodistribution Lung 90 min) [%ID/g] | tissue uptake at 0.75 h ([3]; Biodistribution Muscle 45 min) [%ID/g] | tissue uptake at 1.5 h ([3]; Biodistribution Muscle 90 min) [%ID/g] | tissue uptake at 0.75 h [3, 10] [%ID/g] | tissue uptake at 1.5 h [3, 11] [%ID/g] | other results |
| --- | --- | --- | --- | --- | --- | --- | --- | --- | --- | --- | --- | --- | --- | --- | --- | --- | --- | --- | --- | --- | --- |
| CC(=O)NC1CCCN(O)C(=O)/C=C(/C)CCOC(=O)C(NC(=O)[C@@H](Cc2ccccc2)NC(=O)[C@H](CC(C)C)NC(=O)[C@H](CC(N)=O)NC(C)=O)CCCN(O)C(=O)/C=C(/C)CCOC(=O)C(NC(C)=O)CCCN(O)C(=O)/C=C(/C)CCOC1=O (stereo in doubt) [[^68Ga]Ga-DAFC-NLF-Ac, metal not drawn] | 35 | -0.8 ± 0.08 | 0.46 ± 0.1 | 0.13 ± 0.1 | 0.16 ± 0.05 | 0.59 ± 0.5 | 0.22 ± 0.02 | 0.12 ± 0.11 | 3.09 ± 0.03 | 4.85 ± 1.78 | 35.7 ± 1.73 | 39.9 ± 2.66 | 0.85 ± 0.51 | 0.44 ± 0.05 | 0.62 ± 0.01 | 0.32 ± 0.06 | 0.18 ± 0.08 | 0.17 ± 0.07 | 0.21 ± 0.06 | 0.1 ± 0.06 | tissue uptake [3]: 36 %ID/g; tissue uptake at 0.75 h ([3]; Biodistribution Spleen 45 min): 0.35 ± 0.1 %ID/g; tissue uptake at 1.5 h ([3]; Biodistribution Spleen 90 min): 0.24 ± 0.07 %ID/g; tissue uptake at 0.75 h ([3]; Biodistribution Stomach 45 min): 0.69 ± 0.31 %ID/g; tissue uptake at 1.5 h ([3]; Biodistribution Stomach 90 min): 2.04 ± 0.74 %ID/g |
| CC(=O)N[C@@H]1CCCN(O)C(=O)/C=C(/C)CCOC(=O)[C@H](NC(=O)CCC(=O)N[C@H](CCCNC(=N)N)C(=O)N[C@H](CCCCN)C(=O)N[C@H](CCCCN)C(=O)N[C@H](Cc2c[nH]c3ccccc23)C(=O)N[C@H](Cc2ccccc2)C(=O)N[C@H](Cc2c[nH]c3ccccc23)C(N)=O)CCCN(O)C(=O)/C=C(/C)CCOC(=O)[C@H](NC(C)=O)CCCN(O)C(=O)/C=C(/C)CCOC1=O (stereo in doubt) [[^68Ga]Ga-DAFC-D-PAF26, metal not drawn] | 137 | -3.35 ± 0.16 | 1.08 ± 0.12 | 0.4 ± 0.04 | 1.47 ± 0.09 | 1.11 ± 0.16 | 0.76 ± 0.02 | 0.6 ± 0.23 | 0.63 ± 0.02 | 0.56 ± 0.03 | 150 ± 18 | 158 ± 25.6 | 20.8 ± 0.58 | 23 ± 0.89 | 2.16 ± 0.19 | 1.31 ± 0.23 | 0.42 ± 0.18 | 0.28 ± 0.1 | 0.41 ± 0.02 | 0.26 ± 0.03 | tissue uptake [3]: 150 %ID/g; tissue uptake at 0.75 h ([3]; Biodistribution Spleen 45 min): 2.21 ± 0.15 %ID/g; tissue uptake at 1.5 h ([3]; Biodistribution Spleen 90 min): 1.97 ± 0.21 %ID/g; tissue uptake at 0.75 h ([3]; Biodistribution Stomach 45 min): 0.45 ± 0.17 %ID/g; tissue uptake at 1.5 h ([3]; Biodistribution Stomach 90 min): 0.35 ± 0.03 %ID/g |
| N=C(N)NCCC[C@@H](N)C(=O)N[C@H](CCCCN)C(=O)N[C@H](CCCCN)C(=O)N[C@H](Cc1c[nH]c2ccccc12)C(=O)N[C@H](Cc1ccccc1)C(=O)N[C@H](Cc1c[nH]c2ccccc12)C(N)=O [H2N-D-PAF26-NH2] (H-[dR][dK][dK][dW][dF][dW]-NH2) |  |  |  |  |  |  |  |  |  |  |  |  |  |  |  |  |  |  |  |  | MIC 24 h ([4]; 0.1 × PDB, 37 °C, 24 h): 8 µg/mL (≈ 8.43 µM); MIC 48 h ([4]; 0.1 × PDB, 37 °C, 48 h): 8 µg/mL; MIC / growth inhibition ([4]; 0.1 × PDB, incubation time not given): 8 µg/mL (≈ 8.43 µM); MIC 48 h ([4]; ATCC 46645, 48 h): 8.4 µM; IC50 [5]: 8 µM; Antifungal activity (in words) ([6]; 0.031–16 µg/mL tested): no inhibition could be observed; MIC 24 h ([6]; 37 °C, 24 h): >16 µg/mL; MIC 48 h ([6]; 37 °C, 48 h): >16 µg/mL |
| CC(=O)N([O-])CCC[C@@H]1NC(=O)[C@H](CCCN([O-])C(C)=O)NC(=O)[C@H](CCCN([O-])C(C)=O)NC(=O)[C@@H](Cc2ccccc2)NC(=O)[C@H](CC(C)C)NC(=O)[C@H](CC(N)=O)NC1=O.[Al+3] [VL-2397] (cyclo(L[dF][Orn(N5-OH,N5-Ac)][Orn(N5-OH,N5-Ac)][Orn(N5-OH,N5-Ac)]N)) |  |  |  |  |  |  |  |  |  |  |  |  |  |  |  |  |  |  |  |  | MIC [7]: 1 µg/mL |
| CC(=O)N[C@@H]1CCCN(O)C(=O)/C=C(/C)CCOC(=O)[C@H](NC(=O)CCC(=O)N[C@@H](CC(N)=O)C(=O)N[C@@H](CC(C)C)C(=O)N[C@H](Cc2ccccc2)C(=O)O)CCCN(O)C(=O)/C=C(/C)CCOC(=O)[C@H](NC(C)=O)CCCN(O)C(=O)/C=C(/C)CCOC1=O (stereo in doubt) [[^68Ga]Ga-DAFC-succ-NLF, metal not drawn] | 13 | -2.84 ± 0.17 | 0.41 ± 0.14 | 0.05 ± 0.03 | 1.76 ± 0.17 | 0.31 ± 0.13 | 0.18 ± 0.09 | 0.05 ± 0.02 | 0.4 ± 0.1 | 0.36 ± 0.07 | 3.27 ± 0.61 | 2.93 ± 0.38 | 0.37 ± 0.07 | 0.3 ± 0.05 | 0.61 ± 0.14 | 0.21 ± 0.05 | 0.08 ± 0.01 | 0.11 ± 0.14 | 0.14 ± 0.05 | 0.06 ± 0.02 | tissue uptake at 0.75 h ([3]; Biodistribution Spleen 45 min): 0.23 ± 0.04 %ID/g; tissue uptake at 1.5 h ([3]; Biodistribution Spleen 90 min): 0.19 ± 0.03 %ID/g; tissue uptake at 0.75 h ([3]; Biodistribution Stomach 45 min): 0.19 ± 0.09 %ID/g; tissue uptake at 1.5 h ([3]; Biodistribution Stomach 90 min): 0.11 ± 0.01 %ID/g |
